Test results: paper doi:10.1101/2025.09.20.677498

How the values were obtained:
[1] = molecular target: HAdV-D10 penton base (human adenovirus type 10 (HAdV-D10)); assay: cryo-EM structure
[2] = molecular target: HAdV-D10 fiber protein (human adenovirus type 10 (HAdV-D10)); assay: cryo-EM structure

Substance	stoichiometry N [1]	stoichiometry N [2]
HAdV-D10 penton base (natural protein)	5	–
HAdV-D10 fiber protein (natural protein)	–	3
